Here are results for 1 molecule from publication PMC8726653, “TNF-induced necroptosis initiates early autophagy events via RIPK3-dependent AMPK activation, but inhibits late autophagy” (Autophagy, 2021).

The test has as its target T1, His-AMPK [His-HsPRKAA1 (11–559) + HsPRKAB2 (1–272) + HsPRKAG1 (1–331)] (human, UniProt Q13131 11-559; O43741 1-272; P54619 1-331).
T1 construct: also called DU32489; source: obtained: MRC PPU Reagents and Services, University of Dundee (DU32489); copies: + +
The experiment in a line: pull-down; 4 µg GST-MmRIPK3 (or GST) on glutathione-Sepharose beads incubated with 1 µg His-AMPK overnight at 4°C in 0.5% Nonidet P-40 buffer (50 mM Tris pH 8.0, 100 mM NaCl, 6 mM EDTA, 6 mM EGTA, 1 mM DTT); blot for AMPK and GST. The following applies: both partners purified.

T1 sequence (Q13131 11-559, chain 1 of 3): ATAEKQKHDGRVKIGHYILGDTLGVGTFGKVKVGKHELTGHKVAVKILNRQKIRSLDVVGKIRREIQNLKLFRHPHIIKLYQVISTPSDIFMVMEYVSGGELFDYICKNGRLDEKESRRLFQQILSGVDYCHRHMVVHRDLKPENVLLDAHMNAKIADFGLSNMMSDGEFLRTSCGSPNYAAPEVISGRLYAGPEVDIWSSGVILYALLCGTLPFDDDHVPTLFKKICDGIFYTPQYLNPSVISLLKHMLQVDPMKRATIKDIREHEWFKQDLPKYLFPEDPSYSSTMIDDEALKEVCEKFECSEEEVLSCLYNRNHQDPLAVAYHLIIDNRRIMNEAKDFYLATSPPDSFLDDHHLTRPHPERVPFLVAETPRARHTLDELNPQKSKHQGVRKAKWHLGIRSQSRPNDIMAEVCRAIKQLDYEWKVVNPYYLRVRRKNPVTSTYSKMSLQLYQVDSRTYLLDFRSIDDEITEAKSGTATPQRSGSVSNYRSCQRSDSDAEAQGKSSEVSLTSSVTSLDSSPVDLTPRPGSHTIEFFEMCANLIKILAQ
T1 sequence (O43741 whole entry, chain 2 of 3): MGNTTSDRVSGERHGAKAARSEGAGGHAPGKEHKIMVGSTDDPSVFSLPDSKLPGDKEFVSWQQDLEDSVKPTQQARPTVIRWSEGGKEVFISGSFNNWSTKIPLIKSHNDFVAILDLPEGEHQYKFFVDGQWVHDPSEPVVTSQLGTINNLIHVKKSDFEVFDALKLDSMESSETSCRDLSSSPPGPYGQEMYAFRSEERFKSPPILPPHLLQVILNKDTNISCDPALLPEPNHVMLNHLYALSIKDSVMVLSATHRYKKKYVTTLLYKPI
T1 sequence (P54619 whole entry, chain 3 of 3): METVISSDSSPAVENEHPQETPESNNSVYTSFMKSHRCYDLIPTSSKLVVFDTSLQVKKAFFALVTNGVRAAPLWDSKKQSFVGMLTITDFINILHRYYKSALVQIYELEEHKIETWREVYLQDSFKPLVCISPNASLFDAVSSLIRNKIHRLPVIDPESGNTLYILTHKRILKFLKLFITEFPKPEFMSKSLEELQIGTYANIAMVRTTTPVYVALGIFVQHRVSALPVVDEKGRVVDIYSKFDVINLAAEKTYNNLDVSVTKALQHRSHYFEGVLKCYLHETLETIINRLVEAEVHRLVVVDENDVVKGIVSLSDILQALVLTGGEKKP

B1: GST-MmRIPK3 (enzyme, mouse, UniProt Q9QZL0 1-486, looked up)
chain: MSSVKLWPTGASAVPLVSREELKKLEFVGKGGFGVVFRAHHRTWNHDVAVKIVNSKKISWEVKAMVNLRNENVLLLLGVTEDLQWDFVSGQALVTRFMENGSLAGLLQPECPRPWPLLCRLLQEVVLGMCYLHSLNPPLLHRDLKPSNILLDPELHAKLADFGLSTFQGGSQSGSGSGSGSRDSGGTLAYLDPELLFDVNLKASKASDVYSFGILVWAVLAGREAELVDKTSLIRETVCDRQSRPPLTELPPGSPETPGLEKLKELMIHCWGSQSENRPSFQDCEPKTNEVYNLVKDKVDAAVSEVKHYLSQHRSSGRNLSAREPSQRGTEMDCPRETMVSKMLDRLHLEEPSGPVPGKCPERQAQDTSVGPATPARTSSDPVAGTPQIPHTLPFRGTTPGPVFTETPGPHPQRNQGDGRHGTPWYPWTPPNPMTGPPALVFNNCSEVQIGNYNSLVAPPRTTASSSAKYDQAQFGRGRGWQPFHK
notes: cDNA amplified from pBOB-FLAG-MmRIPK3 and inserted into pGEX-5X-3; also called recombinant RIPK3; source: E. coli BL21 (DE3), purified on glutathione sepharose 4B beads
Take B1: the binding result was “binds”.
